In patent US6682731 one finds concentration data, which are given here for one molecule.

The assay concerns the target HLA-A2 molecule (MHC class I heterodimer, no peptide of the filing added) (human). Nature of the assay: titration of peptide in 0.174 cell lysate, HLA-A2 stabilisation, immunoprecipitation with BB7.2. To be noted: remark: other sources report otherwise.

B1: peptide SEQ ID NO: 2, Ala Leu Ser Arg Lys Val Ala Glu Leu (peptide)
peptide: ALSRKVAEL
For B1, the concentration at which the peptide titrated lay in the range of 5 to 10 nM.
